# Entries after “also recorded” stand apart in the source; their conditions may differ. Where two headings read alike, the source gives them in different places.
# T1: glucarpidase enzymatic activity (Pseudomonas sp., UniProt P06621)
# T1 sequence (P06621 23-415): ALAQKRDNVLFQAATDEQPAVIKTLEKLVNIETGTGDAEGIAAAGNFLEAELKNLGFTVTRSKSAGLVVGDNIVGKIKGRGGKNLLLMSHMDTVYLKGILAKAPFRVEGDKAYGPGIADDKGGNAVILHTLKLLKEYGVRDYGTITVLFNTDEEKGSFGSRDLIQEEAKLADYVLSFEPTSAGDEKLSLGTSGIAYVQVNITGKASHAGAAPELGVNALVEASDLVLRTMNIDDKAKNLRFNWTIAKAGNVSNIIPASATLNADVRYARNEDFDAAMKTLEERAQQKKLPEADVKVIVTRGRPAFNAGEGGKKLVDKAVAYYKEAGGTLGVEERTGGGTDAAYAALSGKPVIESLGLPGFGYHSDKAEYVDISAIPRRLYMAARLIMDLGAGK
# Experiments:
# [1] = CSF MTX and glucarpidase (Example 2)
# Description: Methods. In a phase I dose-finding study of planned-use glucarpidase following HD-MTX, patients were treated with either MTX at 3 g/m^2, 6 g/m^2, or 8 g/m^2. Glucarpidase was dose-reduced to 1000 U or 2000 U and given 24 hours after MTX. […] MTX levels following glucarpidase were determined via mass spectrometry as immunoassay fails to differentiate MTX from byproducts.
# [2] = cited from earlier work
# [3] = Serum MTX level after outpatient HD-MTX with glucarpidase (Example 3); format: in vivo; conditions: human, intravenous, outpatient MTX 3.5 g/m^2, glucarpidase 2000 U next day, 7 treatments, 3 patients, all cases, read-out: serum MTX levels at 48 hours
# [4] = CSF MTX concentrations following glucarpidase (Example 1); format: in vivo, human; conditions: evaluated in two patients
# Description: (§1) Cerebrospinal fluid (CSF) was collected throughout treatment. Serum was collected for analysis of anti-glucarpidase antibodies. […] Rituximab was always dosed at 500 mg/m^2.
# CNSL = conditions: cited from earlier work
# [5] = Serum MTX levels before and after glucarpidase, mass spectrometry (Example 1)
# Description: (§2) Patients were enrolled into two cohorts with Cohort A receiving MTX 3 g/m^2 and Cohort B receiving MTX 6 g/m^2. Glucarpidase 2000 U or 1000 U was administered 24 hours following the initiation of MTX infusion. […] In the present Example, rituximab was administered on Day 1, MTX on Day 2, glucarpidase Day 3, followed by an 11-day non-treatment period before the start of the next cycle.
# [6] = cited from earlier work; remark: listed apart in the source
# [7] = system: anti-glucarpidase antibodies; conditions: in vivo; cited from earlier work
# [8] = set-up: species or system human; conditions: in vivo
# [9] = in vivo
# Description: as §2
# [10] = cited from earlier work; remark: listed apart in the source
# [11] = Adverse events (Example 1); set-up: species or system human; conditions: in vivo
# From the text: A cycle is typically 14±7 days.
# [12] = system: anti-glucarpidase antibodies; assay: Anti-glucarpidase antibodies in serum (Example 1); format: in vivo, human; conditions: two patients, one result per patient
# Description: as §1
# [13] = format: in vivo, human
# [14] = system: anti-glucarpidase antibodies; set-up: species or system human; conditions: in vivo
# [15] = in vivo; cited from earlier work
# [16] = biological target: T1, glucarpidase enzymatic activity; conditions: serum from four of 22 patients with an antibody response; cited from earlier work
# [17] = around 24 hours after glucarpidase, 8 doses
# [18] = typically around 24 hours after glucarpidase
# [19] = setting of MTX-related acute kidney injury
molecule,measurement,setting,value
"CN(Cc1cnc2nc(N)nc(N)c2n1)c1ccc(C(=O)N[C@@H](CCC(=O)O)C(=O)O)cc1 [MTX, Methotrexate]",MTX concentrations in CSF (potentially cytotoxic),[1]; 25 hours following MTX administration (1 hour after glucarpidase),10^−6 M
same,CSF MTX concentrations following glucarpidase (conclusion),[1]; in vivo,remain at cytotoxic levels
same,blood brain barrier penetration,[2]; high doses (>1.5 g/m^2) as a rapid infusion,penetrates the blood brain barrier
same,share cleared via renal excretion,[2]; in vivo,70-90%
same,concentration at 48 h,[3],< 100 nM
same,CSF methotrexate concentrations following glucarpidase administration,[4],remained therapeutic
same,overall response rates (ORR),"CNSL; PCNSL, upfront setting",up to 74%
same,survival benefit,"CNSL; retrospective analysis of 357 patients, regimens with doses 3 g/m^2",statistically significant survival benefit
same,median elevation of MTX (transient increase),[5]; [17],290 nmol/L
same,range of elevation of MTX (transient increase),[5]; [17],119 to 516 nmol/L
same,serum MTX levels within 15 minutes of glucarpidase,[5]; in 23/24 doses,less than 100 nmol/L
same,doses followed by transient increase in MTX levels above 100 nmol/L,[5]; [18],8 of 24
same,share of doses followed by transient increase in MTX levels above 100 nmol/L,[5]; [18],33%
same,adults sustaining acute kidney injury,[6]; HD-MTX,2-12%
same,"incidence of systemic toxicities (hepatic injury, pneumonitis, bone marrow suppression)",[6]; in vivo,< 10%
same,patients requiring MTX dose reduction,[6]; [19],14-44%
same,patients with premature cessation of therapy,[6]; [19],5-8%
glucarpidase: recombinant bacterial enzyme that cleaves serum MTX to inactive metabolites (SEQ ID NO: 1) (protein) ALAQKRDNVLFQAATDEQPAVIKTLEKLVNIETGTGDAEGIAAAGNFLEAELKNLGFTVTRSKSAGLVVGDNIVGKIKGRGGKNLLLMSHMDTVYLKGILAKAPFRVEGDKAYGPGIADDKGGNAVILHTLKLLKEYGVRDYGTITVLFNTDEEKGSFGSRDLIQEEAKLADYVLSFEPTSAGDEKLSLGTSGIAYVQVNITGKASHAGAAPELGVNALVEASDLVLRTMNIDDKAKNLRFNWTIAKAGNVSNIIPASATLNADVRYARNEDFDAAMKTLEERAQQKKLPEADVKVIVTRGRPAFNAGEGGKKLVDKAVAYYKEAGGTLGVEERTGGGTDAAYAALSGKPVIESLGLPGFGYHSDKAEYVDISAIPRRLYMAARLIMDLGAGK,antibody formation post glucarpidase,[7],37-43%
same,patients developing antibodies,[7],roughly 17%
same,grade 3 events,[8],no grade 3 events
same,grade 4 events,[8],only one grade 4 anaphylactic reaction
same,glucarpidase in the CSF,[1]; in vivo,not detected
same,"decrease in serum MTX levels, remaining dose",[9],93%
same,safety and efficacy at approved dose,"[10]; 50 units/kg, patients with delayed MTX elimination from renal impairment",safe and efficacious
same,"patients reporting nausea, vomiting, hypotension, paresthesias, flushing, and headache",[10]; in vivo,< 3%
same,adverse events associated with glucarpidase administration,[11],no adverse events associated with glucarpidase administration
same,anti-glucarpidase antibody titer levels,[12],detectable anti-glucarpidase antibodies; also recorded: did not develop any anti-glucarpidase antibodies
same,reduction in serum MTX levels within 15 minutes,"[13]; glucarpidase 1000 U (14 treatments) or 2000 U (36 treatments), following 49/50 doses",≥ 95%
same,doses with at least a 95% reduction in serum MTX levels within 15 minutes,[13]; glucarpidase 1000 U or 2000 U,49/50
same,"decrease in serum MTX levels, remaining dose",[13]; in vivo,93%
same,efficacy after repeated doses and antibody formation,[13]; low-dose glucarpidase,remains effective even after repeated doses and despite the formation of anti-glucarpidase antibodies
same,reduction of MTX levels (conclusion),[13]; low-dose glucarpidase,> 95%
same,patients with anti-glucarpidase antibodies detected,[14],6 of 8
same,half-life,[15],6 to 9 h
same,volume of distribution,[15],3.6 L
same,inhibition of glucarpidase enzymatic activity in vitro by patient serum,[16],28-58%
same,doses with at least a 95% reduction in serum MTX levels within 15 minutes,[5]; glucarpidase 2000 U or 1000 U,23/24
same,share of doses with at least a 95% reduction in serum MTX levels within 15 minutes,[5]; glucarpidase 2000 U or 1000 U,96%
same,reduction in serum MTX levels within 15 minutes of administration,"[5]; glucarpidase 2000 U or 1000 U 24 h after MTX 3 or 6 g/m^2, in 23/24 doses",≥ 95%
same,effect on serum MTX levels (summary),[5]; low-dose glucarpidase 24 hours after MTX,rapid reduction in serum MTX levels

# From patent US20230000956A1, “COMBINATION THERAPY WITH GLUCARPIDASE WITH METHOTREXATE/RITUXIMAB TO TREAT CNS LYMPHOMA” (MEMORIAL SLOAN KETTERING CANCER CENTER, priority 2019, published 2023)
